Data as given in US20260055182A1 (CIS BIOPHARMA, published 2026).

T1: CD20 on HEK293 cells (human, UniProt P11836 1-297)
T1 construct: whole, on cells; Positive control target for the Rituximab biosimilar; also called clone 0038
T1 sequence (looked up): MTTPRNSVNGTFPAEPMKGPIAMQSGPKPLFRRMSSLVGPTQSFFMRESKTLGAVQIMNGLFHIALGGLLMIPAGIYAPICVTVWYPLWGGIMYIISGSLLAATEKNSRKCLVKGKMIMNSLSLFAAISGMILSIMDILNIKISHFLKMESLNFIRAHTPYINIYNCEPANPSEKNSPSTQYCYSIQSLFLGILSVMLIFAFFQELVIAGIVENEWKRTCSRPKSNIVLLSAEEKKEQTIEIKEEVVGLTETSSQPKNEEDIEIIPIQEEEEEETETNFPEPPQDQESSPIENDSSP

T2: human FcyRIIA/CD32a (H167) (human, UniProt P12318 36-218)
T2 construct: Bought protein, reversibly immobilised for SPR; also called human CD32a (H167)
T2 sequence (looked up): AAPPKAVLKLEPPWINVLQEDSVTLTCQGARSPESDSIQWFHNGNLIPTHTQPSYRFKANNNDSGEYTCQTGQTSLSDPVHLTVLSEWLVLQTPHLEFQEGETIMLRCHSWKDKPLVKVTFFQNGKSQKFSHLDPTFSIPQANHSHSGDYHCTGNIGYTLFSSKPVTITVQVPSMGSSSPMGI


Experiments:
human FcyRI/CD64 [1] = target: T3, human FcyRI/CD64 (human, UniProt P12314 16-288, limits assumed); assay: SPR; KD of LV40 over KD of Rituximab (control)
T3 construct: Bought protein, reversibly immobilised for SPR; also called human CD64
Protocol: (§1) Effect on interaction with Fc receptor was analyzed by SPR [Instrument: Biacore T200 (C1q and FcRn) and 8K+ for (FcγR)]. Analysis temperature: 25° C., sample compartment: 12° C., Sensor chips: CM3 (C1q) and C1 (FcγR and FcRn).
(§2) Concentration range was adjusted to optimal window depending on results of qualitative analysis. The study was conducted by Biaffin GmbH & Co KG (Bielefeld, Germany).

human FcRn / FCGRT&B2M [2] = target: T4, human FcRn / FCGRT&B2M (human, UniProt P55899 24-297; P61769 21-119); assay: SPR; KD of LV40 over KD of Rituximab (control)
T4 construct: Bought protein, reversibly immobilised for SPR at pH 6.0; also called neonatal receptor
Protocol: as §1, §2

[3] = target: T5, L1-CAM recombinant protein (His Tag), human (human, UniProt P32004 20-1120); assay: SPR (Biacore 8K) as in Example 6, new batch of L1-CAM on the chip
T5 construct: Bought protein; also called CD171; human L1-CAM; not shown: His tag

human FcyRI/CD64 [4] = target: T3, human FcyRI/CD64; assay: SPR (Biacore 8K+), receptor reversibly immobilised, antibody as analyte
Protocol: as §1, §2

human FcRn / FCGRT&B2M [5] = target: T4, human FcRn / FCGRT&B2M; assay: SPR (Biacore T200), pH 6.0, FcRn reversibly immobilised, antibody as analyte
Protocol: as §1, §2

CD20 on HEK293 cells = target: T1, CD20 on HEK293 cells; assay: cell microarray confirmation screen, control vector; cells of LV40 under CD20 are blank
Protocol: (§3) Vectors encoding all interactions identified in the library screen, plus control vectors encoding CD20 (positive control) and EGFR (transfection and negative control), were arrayed and expressed in HEK293 cells on new slides. Confirmation screen slides and analyses were carried out as for the library screen either after cell fixation (n=2) or in the absence of fixation (n=1). […] Binding to target-expressing cells and non-transfected cells was again assessed by fluorescence imaging.

EGFR on HEK293 cells = target: T6, EGFR on HEK293 cells (human, UniProt P00533 25-1210); assay: cell microarray confirmation screen, negative control vector; cells of LV40 under EGFR are blank
T6 construct: whole, on cells; also called hEGFR
Protocol: as §3

[6] = target: human C1q purified protein (human, UniProt P02745 23-245; P02746 28-253; P02747 29-245); assay: SPR (Biacore T200), C1q reversibly immobilised, antibody as analyte; table token '-' at the 120th table, row 16, column 3
Protocol: as §1

[7] = target: T2, human FcyRIIA/CD32a (H167); assay: SPR (Biacore 8K+), receptor reversibly immobilised, antibody as analyte; table token '-' at the 120th table, row 10, column 3
Protocol: as §1

[8] = target: T7, human FcyRIIIA/CD16a (V176) (human, UniProt P08637 17-208); assay: SPR (Biacore 8K+), receptor reversibly immobilised, antibody as analyte; table token '-' at the 120th table, row 12, column 3
T7 construct: Bought protein, reversibly immobilised for SPR; also called human CD16a (V176)
Protocol: as §1

[9] = target: T5, L1-CAM recombinant protein (His Tag), …; assay: SPR (Biacore 8K); L1-CAM immobilised on CM5 chip, antibody as analyte
Protocol: In the SPR experiment, antigen is immobilized on sensor chip and solutions containing antibody at various concentrations are flown over the antigen. real time measurement of kinetics parameters is performed, including their on/off rates (ka and kd). Based thereon, binding affinity constant KD is determined.

[10] = target: T5, L1-CAM recombinant protein (His Tag), …; assay: ELISA, human L1-CAM coated at 2 µg/ml; first of two values in the cell
[11] = target: T5, L1-CAM recombinant protein (His Tag), …; assay: ELISA, human L1-CAM coated at 2 µg/ml; second of two values in the cell

T5 sequence (P32004 20-1120 limits assumed): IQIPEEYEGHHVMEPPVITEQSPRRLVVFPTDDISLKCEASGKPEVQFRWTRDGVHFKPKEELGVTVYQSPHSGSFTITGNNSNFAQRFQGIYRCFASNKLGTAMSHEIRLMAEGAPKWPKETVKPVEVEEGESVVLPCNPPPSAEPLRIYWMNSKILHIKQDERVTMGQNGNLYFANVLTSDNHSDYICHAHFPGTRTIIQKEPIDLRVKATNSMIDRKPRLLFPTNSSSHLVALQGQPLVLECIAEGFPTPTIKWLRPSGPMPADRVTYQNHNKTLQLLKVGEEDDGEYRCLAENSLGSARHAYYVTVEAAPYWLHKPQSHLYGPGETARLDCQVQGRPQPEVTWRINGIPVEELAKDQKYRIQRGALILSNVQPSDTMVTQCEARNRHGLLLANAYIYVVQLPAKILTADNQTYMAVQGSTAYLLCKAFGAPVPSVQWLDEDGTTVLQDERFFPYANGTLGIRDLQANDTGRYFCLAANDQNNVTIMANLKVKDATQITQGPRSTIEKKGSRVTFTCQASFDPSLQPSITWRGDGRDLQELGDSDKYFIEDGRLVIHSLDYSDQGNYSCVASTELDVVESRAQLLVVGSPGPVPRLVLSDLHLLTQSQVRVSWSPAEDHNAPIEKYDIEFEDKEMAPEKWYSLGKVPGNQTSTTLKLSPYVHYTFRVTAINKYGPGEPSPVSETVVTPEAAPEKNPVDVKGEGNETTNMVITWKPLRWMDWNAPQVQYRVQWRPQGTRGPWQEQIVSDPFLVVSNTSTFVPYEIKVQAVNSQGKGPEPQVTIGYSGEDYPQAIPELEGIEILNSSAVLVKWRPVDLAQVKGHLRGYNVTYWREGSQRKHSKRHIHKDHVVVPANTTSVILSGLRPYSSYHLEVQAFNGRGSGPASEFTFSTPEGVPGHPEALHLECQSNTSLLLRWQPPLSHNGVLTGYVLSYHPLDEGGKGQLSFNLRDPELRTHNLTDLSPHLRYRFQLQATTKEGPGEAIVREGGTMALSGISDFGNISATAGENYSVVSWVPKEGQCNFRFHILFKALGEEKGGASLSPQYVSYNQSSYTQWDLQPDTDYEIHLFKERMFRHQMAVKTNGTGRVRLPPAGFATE
T3 sequence (P12314 16-288 limits assumed): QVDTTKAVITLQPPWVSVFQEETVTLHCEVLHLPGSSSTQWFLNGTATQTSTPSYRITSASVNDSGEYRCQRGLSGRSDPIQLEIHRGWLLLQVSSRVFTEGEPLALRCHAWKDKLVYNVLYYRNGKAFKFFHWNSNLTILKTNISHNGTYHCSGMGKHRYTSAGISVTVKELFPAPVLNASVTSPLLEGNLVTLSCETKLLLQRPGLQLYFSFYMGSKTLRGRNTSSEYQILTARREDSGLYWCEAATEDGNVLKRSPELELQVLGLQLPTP
human C1q purified protein, sequence (P02745 23-245, chain 1 of 3): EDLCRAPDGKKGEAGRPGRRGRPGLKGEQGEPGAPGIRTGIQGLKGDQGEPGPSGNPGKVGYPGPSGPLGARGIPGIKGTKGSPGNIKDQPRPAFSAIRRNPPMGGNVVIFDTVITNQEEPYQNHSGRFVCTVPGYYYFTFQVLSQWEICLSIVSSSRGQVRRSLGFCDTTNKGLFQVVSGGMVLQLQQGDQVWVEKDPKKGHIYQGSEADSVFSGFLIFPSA
human C1q purified protein, sequence (P02746 28-253, chain 2 of 3): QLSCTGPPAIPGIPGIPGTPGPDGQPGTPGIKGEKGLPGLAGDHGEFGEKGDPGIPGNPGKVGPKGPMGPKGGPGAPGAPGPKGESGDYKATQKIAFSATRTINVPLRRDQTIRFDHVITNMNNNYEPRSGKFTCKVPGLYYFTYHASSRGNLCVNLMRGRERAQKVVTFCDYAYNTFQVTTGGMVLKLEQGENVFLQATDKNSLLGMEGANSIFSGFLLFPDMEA
human C1q purified protein, sequence (P02747 29-245, chain 3 of 3): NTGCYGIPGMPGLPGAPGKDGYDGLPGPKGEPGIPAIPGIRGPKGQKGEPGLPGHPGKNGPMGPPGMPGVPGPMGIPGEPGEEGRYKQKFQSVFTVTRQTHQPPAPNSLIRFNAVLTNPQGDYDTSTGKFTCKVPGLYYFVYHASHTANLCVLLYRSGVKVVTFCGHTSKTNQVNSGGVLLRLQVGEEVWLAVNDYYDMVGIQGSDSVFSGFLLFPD
T7 sequence (P08637 17-208 F176V limits assumed): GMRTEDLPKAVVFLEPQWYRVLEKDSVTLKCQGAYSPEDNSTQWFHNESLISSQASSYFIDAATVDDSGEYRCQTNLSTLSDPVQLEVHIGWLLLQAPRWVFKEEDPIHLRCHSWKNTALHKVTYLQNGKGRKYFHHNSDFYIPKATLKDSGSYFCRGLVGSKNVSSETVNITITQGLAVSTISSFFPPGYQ

Row | ratio KD (KD sample / KD control) (human FcyRI/CD64 [1]) | ratio KD (KD sample / KD control) (human FcRn / FCGRT&B2M [2]) | Kd [3] | koff [3] | kon [3] | Kd (human FcyRI/CD64 [4]) | Kd (human FcRn / FCGRT&B2M [5]) | binding result (CD20 on HEK293 cells) | binding result (EGFR on HEK293 cells) | binding result [6] | binding result [7] | binding result [8] | Kd [9] | koff [9] | kon [9] | EC50 [10] | EC50 [11] | Binder
1 | 389 | 1.2 | 0.0644 nM | 0.000472 s⁻¹ | 7.32e+06 M⁻¹ s⁻¹ | 15.8 nM | 459 nM | no binding (tested: 20 µg/mL) | no binding (tested: 20 µg/mL) | no binding | no binding | no binding | – | – | – | – | – | huCE7 LV40 (antibody, human IgG1, kappa, L234A L235A, N297A, Variant 7AG (IgG1, N297A L234A L235A P331S) with HC WH33F, GH55A, TH307P and LC NL31A, WL92Y; also called huCE7 variant LV40; huCE7-variant40) heavy: QVQLVQSGAEVKKPGASVKVSCKASGYTFTGYFMHWVRQAPGQGLEWIGEINPSNARTNYNERFQGRVTLTVDKSISTAYMELSRLRSDDTAVYYCARDYYGTSYNFDYWGQGTLVTVSSASTKGPSVFPLAPSSKSTSGGTAALGCLVKDYFPEPVTVSWNSGALTSGVHTFPAVLQSSGLYSLSSVVTVPSSSLGTQTYICNVNHKPSNTKVDKKVEPKSCDKTHTCPPCPAPEAAGGPSVFLFPPKPKDTLMISRTPEVTCVVVDVSHEDPEVKFNWYVDGVEVHNAKTKPREEQYASTYRVVSVLPVLHQDWLNGKEYKCKVSNKALPASIEKTISKAKGQPREPQVYTLPPSREEMTKNQVSLTCLVKGFYPSDIAVEWESNGQPENNYKTTPPVLDSDGSFFLYSKLTVDKSRWQQGNVFSCSVMHEALHNHYTQKSLSLSPGK light: DIQMTQSPSSLSASVGDRVTITCKANEDINARLAWYQQKPGKAPKLLISGATNLVTGVPSRFSGSGSGKDYTLTISSLQPEDFATYYCQQYYSTPFTFGQGTKLEIKRTVAAPSVFIFPPSDEQLKSGTASVVCLLNNFYPREAKVQWKVDNALQSGNSQESVTEQDSKDSTYSLSSTLTLSKADYEKHKVYACEVTHQGLSSPVTKSFNRGEC
2 | – | – | – | – | – | – | – | – | – | – | – | – | 0.0519 nM | 4.39e-05 s⁻¹ | 845000 M⁻¹ s⁻¹ | 0.00663 mg/L | 0.0232 mg/L | chimeric cHCE7 (antibody, V domains shown, Control antibody; also called chimeric HCE7; CE7 chimeric antibody) VH: QVQLQQPGAELVKPGASVKLSCKASGYTFTGYWMHWVKQRPGHGLEWIGEINPSNGRTNYNERFKSKATLTVDKSSTTAFMQLSGLTSEDSAVYFCARDYYGTSYNFDYWGQGTTLTVSS VL: DIQMTQSSSSFSVSLGDRVTITCKANEDINNRLAWYQQTPGNSPRLLISGATNLVTGVPSRFSGSGSGKDYTLTITSLQAEDFATYYCQQYWSTPFTFGSGTELEIK
